The subject of data set [1] is CD133-negative cell surface (HEK293T or T98G; no CD133) (Homo sapiens). Nature of the data set: flow. As to conditions: 2'-F pyrimidines, 3'-inverted dT, 37 C.
In data set [2] the target is T1, CD133 (prominin-1) (Homo sapiens, UniProt O43490 O43490:20-865).
T1 sequence: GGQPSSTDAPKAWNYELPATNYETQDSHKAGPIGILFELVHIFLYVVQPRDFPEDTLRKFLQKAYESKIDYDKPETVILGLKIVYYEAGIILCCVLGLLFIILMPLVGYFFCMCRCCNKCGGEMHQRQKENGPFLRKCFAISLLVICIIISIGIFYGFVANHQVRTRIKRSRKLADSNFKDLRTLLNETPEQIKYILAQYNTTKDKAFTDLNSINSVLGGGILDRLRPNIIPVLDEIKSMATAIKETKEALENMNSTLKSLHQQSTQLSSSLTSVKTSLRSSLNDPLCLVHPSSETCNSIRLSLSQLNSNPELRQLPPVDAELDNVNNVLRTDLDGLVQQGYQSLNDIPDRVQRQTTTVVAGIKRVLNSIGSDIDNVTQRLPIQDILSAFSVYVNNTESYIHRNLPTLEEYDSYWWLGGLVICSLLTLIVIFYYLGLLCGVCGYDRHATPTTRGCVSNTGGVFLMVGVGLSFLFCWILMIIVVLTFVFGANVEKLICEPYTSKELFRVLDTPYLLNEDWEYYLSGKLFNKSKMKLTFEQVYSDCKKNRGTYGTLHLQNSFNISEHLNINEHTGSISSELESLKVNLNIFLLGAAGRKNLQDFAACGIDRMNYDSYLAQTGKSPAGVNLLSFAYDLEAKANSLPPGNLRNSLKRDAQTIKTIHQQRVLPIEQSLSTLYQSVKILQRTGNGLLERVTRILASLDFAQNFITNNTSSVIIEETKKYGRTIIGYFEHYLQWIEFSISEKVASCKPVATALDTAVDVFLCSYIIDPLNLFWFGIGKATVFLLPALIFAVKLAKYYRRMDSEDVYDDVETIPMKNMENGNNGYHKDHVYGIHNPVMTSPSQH
The data set can be described thus: flow; Hep3B cells; 37 C 30 min, DPBS + MgCl2. The settings on record: tags: endogenous CD133 on CD133-positive HT-29 or Hep3B cells (ATCC); label: 5'-DY647. An excerpt:
(§1) CCCTCCTACATAGGGAGGAACGAGTTACTATAG -3′, and antisense oligonucleotide, 5′-CTATAGTAACTCGTTCCTCCCTATGTAGGAGGGTGGGTTGAGCGTTTATTCTTGTCTC -3′; CD133-1-2 (2nd truncation) was derived from a sense oligonucleotide: 5′-TAATACGACTCACTATAGCTCAACCCACCCTCCTACATAGGGAGGAACGAGT-3′and an antisense oligonucleotide, 5′-ACTCGTTCCTCCCTATGTAGGAGGGTGGGTTGAGC -3′; CD133-1-2-1 (3rd Truncation) was derived from a sense oligonucleotide, 5′-TAATACGACTCACTATACCACCCTCCTACATAGGGTGG-3′ and an antisense oligonucleotide, 5′-CCACCCTATGTAGGAGGGTGG-3′; and CD133-1-2-2 (4th Truncation) was derived from a sense oligonucleotide, TAATACGACTCACTATACCCTCCTACATAGGG-3′ and an antisense oligonucleotide, 5′-CCC TAT GTA GGA GGG-3′. CD133-2-1 (1st Truncation) was derived from a sense oligonucleotide 5′-TAATACGACTCACTATACAGAACGTATACTATTCTG-3′ and an antisense oligonucleotide, 5′-CAG AAT AGT ATA CGT TCT G-3′ (T7 RNA promoter sequence is underlined). […] The binding affinities of these two aptamers and a negative control aptamer was determined using CD133 positive (HT-29 and Hep3B) and CD133 negative cell lines (T98G and HEK293T). […]

Data set [3] addresses T1, CD133 (prominin-1). Nature of the data set: flow; HT-29 cells; 37 C 30 min, DPBS + MgCl2, tRNA, salmon sperm DNA. As to conditions: tags: endogenous CD133 on CD133-positive HT-29 or Hep3B cells (ATCC); label: 5'-DY647.
Source text: as §1

In data set [4] the target is T1, CD133 (prominin-1). The data set can be described thus: flow; HT-29 cells; 37 C 30 min, DPBS + MgCl2. As to conditions: tags: endogenous CD133 on CD133-positive HT-29 or Hep3B cells (ATCC); label: 5'-DY647.
Source text: as §1

For the molecule CCCUCCUACAUAGGG [CD133-1-2-2], the values for the Kd in data set [1] (CD133-negative HEK293T cells) and in data set [1] (CD133-negative T98G cells) were 120 µM and 275 µM, respectively.

For CAGAACGUAUACUAUUCUG [CD133-2-1], the Kd in data set [1] (CD133-negative HEK293T cells) worked out at 1740 µM; in data set [1] (CD133-negative T98G cells), 4.76 µM.

B1: CD133-1-2-2 (ssRNA)
RNA: CCCUCCUACAUAGGG
modifications: 2'-F pyrimidines; 3'-inverted dT
Take B1: the Kd was 0.032 µM with CD133 (prominin-1) [2] and 0.082 µM with CD133 (prominin-1) [3].

B2: CD133-2-1 (ssRNA)
RNA: CAGAACGUAUACUAUUCUG
modifications: 2'-F pyrimidines; 3'-inverted dT
Turning to B2, the Kd in the data set with CD133 (prominin-1) [4] was determined as 0.145 µM; in the data set with CD133 (prominin-1) [2], 0.052 µM.

What is called Kd is the concentration at which binding is half-saturated.

Values taken from US20150299708, “CD133 APTAMERS FOR DETECTION OF CANCER STEM CELLS” (Deakin University, published 2015).
